From IntAct's records for PubMed 17380122

B1: Regulator of G-protein signaling 12 (Mus musculus), Q8CGE9 (parent)
chain: MYRAGEPGKRQPGPAPPRVRSVEVARGRAGYGFTLSGQAPCVLSCVMRGSPADFVGLRAGDQILAINEINVKKASHEDVVKLIGKCSGVLHMVIAEGTSHVESCSSDEEGGLYEGKGWLRPKLDSKALGINRAERVVEEVQSGGIFNMIFESSSLCASGPEPLKLKQRSLSESAALRLDAGQAGLCAPHPSMLSKEDISKVINDDSVFTVGLDSHDDFGLDASILNVAMVVGYLGSIELPSTSSNLEHDSLQAIRGCMRRLRAEQKIHSLVTMKVMHDCVQLVTDRAGVVAEYPAEKLAFSAVCPDDRRFFGLVTMQTNDDGGLAQEDEGALRTSCHVFMVDPDLFHHKIHQGIARRFGFACTADPDTSGCLEFPASSLPVLQFISVLYRDMGELIEGVRARAFLDGDADAHQNNSTSSNSDSGIGNFNQEEKSNRVLVVDLGGGSSRHGQGSSPGWESGGGRGSQPWSAPWNGAFCHDSEAGSPLETSPNTDRFWDLTKHSGPVSHMEVPPATLRSSIPPSKRGAAGSSCGFNQRWLPVHVLQEWQCGHASDQESYTDSTDGWSSVNCGTLPPPMSKIPADRYRVEGSFAQAPLSTQKRDWSRKAFGMQNLFGPHRNVRKTKEDKKSSKLGRGVALAQTSQRTSARRSFGRSRRFSITRSLDDLESATVSDGELTGADLKDCISNNSLSSNASLPSVQSCRRLRERRVASWAVSFERLLQDPVGVRYFSDFLRKEFSEENILFWQACECFSHVPAHDKKELSYRAREIFSKFLCSKATTPVNIDSQAQLADDILNAPHPDMFKEQQLQIFNLMKFDSYTRFLKSQLYQECVLAEVEGRTLPDSQQVPSSPASKHSISSDHSNVSTPKKLSGKSKSGRSLNEDVGEEDSEKKRRGAFFSWSRSRSTGRSQKKKDHGDHAHDAPHANGGLCRRESQGSVSSAGSLDLSEACRTSALEKDKAAKHCCVHLPDGTSCVVAVKSGFSIKEILSGLCERHGINGAAVDLFLVGGDKPLVLHQDSSILATRDLRLEKRTLFRLDLVPINRSVGLKAKPTKPVTEVLRPVVAKYGLDLGSLLVRLSGEKEPLDLGAPISSLDGQRVILEERDPSRGKVSTDKQKGAPVKQNSAVNSSPRNHLAMGEERTLGKSNSIKIRGENGKSARDPRLSKREESIAKIGKKKYQKINLDEAEEFFELISKAQSNRADDQRGLLRKEDLVLPEFLRLPAGSSELALSSPPPVKGYSKRAVTGHGQEGAAQTEESYSDSPATSPASAQSPCSAYSPGSAHSPGSAHSTPGPPGTTQPGEKPTKPSCVSMVQEGTTQAWRRLSPEMEAGGIQTVEDEQVADLTLMGEGDISSPNSTLLPPPPTPQDTPGPPRPGTSRF

Variants of: B1
Settings: with rash_rat Hras

effect of a mutation on the interaction	Variant
decreasing interaction	H995L

Variants of: B1
Settings: with rasn_rat Nras

effect of a mutation on the interaction	Variant
decreasing interaction	H995L
